One substance from patent US20170101451 can be followed below.

In one series the test system is T1, SDF-1 17AA.
T1 sequence: KPVSLSYRCPCRFFESH

For series [1], the system named is stromal cell derived factor-1 (SDF-1alpha), unmutated.
Chain of stromal cell derived factor-1 (SDF-1alpha), unmutated (chain, as listed by the source, change not shown): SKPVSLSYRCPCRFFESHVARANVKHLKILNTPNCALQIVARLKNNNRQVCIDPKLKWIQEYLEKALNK

Chain of matrix metalloproteinase-2 (MMP-2) (P08253 110-660): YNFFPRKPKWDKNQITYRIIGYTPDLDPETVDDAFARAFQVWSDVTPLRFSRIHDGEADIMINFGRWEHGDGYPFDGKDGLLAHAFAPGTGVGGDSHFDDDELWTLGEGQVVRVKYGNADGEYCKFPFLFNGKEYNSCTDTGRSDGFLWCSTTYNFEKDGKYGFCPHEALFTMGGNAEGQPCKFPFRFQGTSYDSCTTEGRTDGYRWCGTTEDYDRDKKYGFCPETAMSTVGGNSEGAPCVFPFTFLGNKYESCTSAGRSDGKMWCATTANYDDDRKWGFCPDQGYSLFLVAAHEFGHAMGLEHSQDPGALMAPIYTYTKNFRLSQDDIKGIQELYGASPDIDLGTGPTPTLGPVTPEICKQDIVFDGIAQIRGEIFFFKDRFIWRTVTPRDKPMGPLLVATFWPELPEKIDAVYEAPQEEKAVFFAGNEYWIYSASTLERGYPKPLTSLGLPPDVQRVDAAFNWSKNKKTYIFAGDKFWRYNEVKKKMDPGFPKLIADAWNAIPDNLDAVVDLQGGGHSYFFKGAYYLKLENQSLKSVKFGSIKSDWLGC
Chain of SDF-1(L5E) (chain, as listed by the source): as the sequence (chain, as listed by the source, change not shown) above, with L6E counted along it
Chain of SDF-1(S4V) (chain, as listed by the source): as the sequence (chain, as listed by the source, change not shown) above, with S5V counted along it
Chain of SDF-1(L5P) (chain, as listed by the source): as the sequence (chain, as listed by the source, change not shown) above, with L6P counted along it
Chain of SDF-1(L5W) (chain, as listed by the source): as the sequence (chain, as listed by the source, change not shown) above, with L6W counted along it

Consider matrix metalloproteinase-2 (MMP-2), for which the “cleavage by MMP-2: SDS-PAGE positional shift after one hour incubation” value in the series with SDF-1(L5P) was “unlike SDF-1, the mutants did not undergo a positional shift indicative of cleavage”; in the series with SDF-1(L5W), “unlike SDF-1, the mutants did not undergo a positional shift indicative of cleavage”; in the series on SDF-1(S4V), “unlike SDF-1, the mutants did not undergo a positional shift indicative of cleavage”; with SDF-1(L5E), “unlike SDF-1, the mutants did not undergo a positional shift indicative of cleavage”; in series [1], “unlike SDF-1, the mutants did not undergo a positional shift indicative of cleavage”. Further, the “cleavage by MMP-2: SDS-PAGE, 2 nmole peptide incubated with MMP-2 for 1 h at RT” value in the series on SDF-1 17AA was “showing cleavage of SDF-1 17AA”.
